Experimental data as given in the supplement of paper PMC12764529.
± gives the half width of the 95% confidence interval.

Tests used:
[1] = folding stability dG unfold from trypsin proteolysis; higher = more stable
Outline: (§1)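 K50 was inferred by Bayesian fitting of sequencing counts obtained after protease digestion of designed mini-proteins. Unfolding free energy was derived by comparison with a sequence-predicted unfolded-state K50 and a shared folded-state K50, for each protease or both combined. The mini-proteins were under 80 residues, had no cysteine, were carried in a PA-tagged cDNA display construct, and were kept only if AlphaFold2 dimer inter-PAE exceeded 15.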

[2] = folding stability dG unfold from chymotrypsin proteolysis; higher = more stable
Outline: as §1

[3] = folding stability dG unfold (combined trypsin and chymotrypsin); higher = more stable
Outline: as §1

Sequence	folding stability dG unfold [1]	folding stability dG unfold [2]	folding stability dG unfold [3]
SAMSLEDMTPEELEELVKELIEKLREELEKEGKTIKPGETIEIEIEVKGKKLKIKITVDKDGNIKIEVESAG [r14_501_TrROS_Hall]	2.87 ± 0.2 kcal/mol	3.03 ± 0.084 kcal/mol	2.97 ± 0.092 kcal/mol
SAGGSAGGSAGGGKEISLDELIDIAIELGYPGTIEDLLADPNIKIYPNPYDDKPVILIPDSAGGSAGGSAGG [r7_180_TrMRF]	1.7 ± 0.065 kcal/mol	0.576 ± 0.053 kcal/mol	1.25 ± 0.086 kcal/mol
SAGGSAGGSAGGIKLENPNGFEVYKSPDSMVEIEFVNPNGKPMRYIIQVDEPGEIKPYPVSAGGSAGGSAGG [r7_423_TrROS]	0.0628 ± 0.13 kcal/mol	0.0804 ± 0.23 kcal/mol	0.0566 ± 0.2 kcal/mol
SAGGSAKVIRVKSLEEALKLAEEAKKAGLEVEIKLLPDGSVLITVKPKPKPKVKKVEKKVKLPEGKSAGGSA [r15_761_TrROS_Hall]	0.507 ± 0.074 kcal/mol	1.96 ± 0.077 kcal/mol	1.36 ± 0.15 kcal/mol
SAGGKTLTIEVNGKKYKITVEKNENGELTLTIYEYDKKTKKWKKIKTIKLKNMSLEEVLKLLKKLPPSAGGS [r16_378_TrROS_Hall]	4.09 ± 0.2 kcal/mol	4.91 ± 0.19 kcal/mol	4.58 ± 0.3 kcal/mol
SAGGSAGGSAGKVELIETEDKLYLVVEVDGKKEVIEVSKEELEELLAALPPDAKVTILKPSAGGSAGGSAGG [r11_374_TrROS_Hall]	3.17 ± 0.21 kcal/mol	2.49 ± 0.12 kcal/mol	2.77 ± 0.16 kcal/mol
SAGGSAGGMPAEWLDEIEAPPGNYRAELYKTEKEVRIIITLPNGEKLELTFEVKPDEEILVLPGSAGGSAGG [r6_379_TrMRF]	1.89 ± 0.057 kcal/mol	2.12 ± 0.17 kcal/mol	2.05 ± 0.097 kcal/mol
SAGGTPVVVPATITVPVPFGAPARVTIFTPEDGHVLALIELPDGAVLVATFDPTTGELHVAPYADAASAGGS [r16_735_TrMRF]	1.19 ± 0.061 kcal/mol	2.78 ± 0.06 kcal/mol	2.23 ± 0.14 kcal/mol
SAGGKKKYKLIIKIKFKKGDIDKAKKEVEAIANKIKDEFEKKGVKVKVKVSYDKDNDIVYIEVEFEVPSAGG [r13_755_TrMRF]	3.36 ± 0.12 kcal/mol	4.43 ± 0.082 kcal/mol	4.24 ± 0.14 kcal/mol
SVEELAKKLAELFPNVKVTVTEEEIDGKKVKTIRIENKKTGKTYEITVLPNGEILITDSNGKKFSLEELLSA [r9_1176_TrROS_Hall]	4.26 ± 0.27 kcal/mol	4.91 ± 0.31 kcal/mol	4.86 ± 0.25 kcal/mol
SAGGSAGGSAGIVIKAKSPDEAVEALKKLFEKTGKADINIKPVKVLPDGNVLVEAGIDNKSAGGSAGGSAGG [r17_430_TrMRF]	-0.403 ± 0.054 kcal/mol	-1.43 ± 0.61 kcal/mol	-0.689 ± 0.34 kcal/mol
SAGGMMKIKITIINENGETLTIEIEVPEEDLEEAIKALEDELKKKGYEIESIERVNGKITITVRIKPSAGGS [r16_662_TrROS_Hall]	4.03 ± 0.16 kcal/mol	4.06 ± 0.06 kcal/mol	4.12 ± 0.12 kcal/mol
SAGGMSPDQIWKAKLLSRKKGKNGSVYNIVIYNPDNPKPIFINKPGDNPEDVLKELEELVKKGPIDLESAGG [r13_286_TrMRF]	0.354 ± 0.22 kcal/mol	0.549 ± 0.21 kcal/mol	0.468 ± 0.18 kcal/mol
SAGGSAGGSAGGSVTYEADEVEIKEFTDPSTGKKYVTVTFPGPGGPVTTTLPADLIEELSAGGSAGGSAGGS [r10_447_JUSTAS]	0.96 ± 0.043 kcal/mol	1.48 ± 0.03 kcal/mol	1.33 ± 0.093 kcal/mol
SAGGLKELLEALKEGNLEEALEALKKLGIEEVKIEIKPVVRVVITVEVPKEKVKVKVEVRVFLPEEELSAGG [r13_359_TrROS_Hall]	1.94 ± 0.13 kcal/mol	1.24 ± 0.23 kcal/mol	1.71 ± 0.33 kcal/mol
SAMEKGKALKYREVIPLPDGPVELEIIYFPETGEYVAIIRNPSTGEKVEIPFKFDSLEDAVKAAKDFVASAG [r14_65_TrMRF]	2.06 ± 0.11 kcal/mol	3.705 ± 0.029 kcal/mol	3.29 ± 0.076 kcal/mol

Sequence	folding stability dG unfold [1]	folding stability dG unfold [2]	folding stability dG unfold [3]
SAGGSAGGSFKVPGGYKVVSVEEDPENKTVEITFADGSKLTIDIEDPNVFKPVKVEAPEGFDVSAGGSAGGS [r12_149_TrMRF]	1.55 ± 0.081 kcal/mol	2.04 ± 0.038 kcal/mol	1.89 ± 0.054 kcal/mol
SAGSPEELAEKIAEELAAEYEKKNPDKKPVKIEVKEVVVDPEGGSVTIKIKFYDPDGKPLAEPVITVESAGG [r19_53_JUSTAS]	1.74 ± 0.17 kcal/mol	1.85 ± 0.13 kcal/mol	1.76 ± 0.21 kcal/mol
SAGGSAGIEERLKKLAEELGLEVKVTKVEVKVDGKEEVVVEVEVEPPPPPVEVKELSEEERKKAEESAGGSA [r15_256_TrROS_Hall]	1.27 ± 0.21 kcal/mol	0.99 ± 0.19 kcal/mol	1.13 ± 0.23 kcal/mol
SAGGSAGGSADLLEELPGLEVVDIERKGNSVVALFRNKETGELVRVTVDADGNITVEVLPLESAGGSAGGSA [r18_26_TrROS_Hall]	3.7 ± 0.1 kcal/mol	4.02 ± 0.072 kcal/mol	3.99 ± 0.11 kcal/mol
SAGGMPPEELEAASLEERIARVRAAGLETATVRRPDGSTLTIDLGEEGPVTITTTTPPGETTTATLPSAGGS [r8_51_JUSTAS]	-1.04 ± 0.55 kcal/mol	0.975 ± 0.042 kcal/mol	0.654 ± 0.08 kcal/mol
ADFRVTEESPEGVVTQTTTVALPDGTSRTLTYSYSKDASLTSVTVSYTPDSVTTTTTPVTPVPPGSPELAGS [r1_53_JUSTAS]	-0.411 ± 0.17 kcal/mol	0.24 ± 0.19 kcal/mol	0.0981 ± 0.13 kcal/mol
SAGGKNITIDDITFQPQRDNGKPRYYMEVKVELPNGNPIPITMPMDRMQNNGMSPKTFAKWIAKWLLSAGGS [r16_625_TrROS]	1.04 ± 0.13 kcal/mol	1.5 ± 0.22 kcal/mol	1.3 ± 0.12 kcal/mol
SAGGKITAFVLVELPDGSVVERTYEFERLDDLLAFLEADPGPKLADLEIIPPEGSDDIIIPLVARVEPSAGG [r13_796_TrMRF]	0.883 ± 0.041 kcal/mol	2.15 ± 0.053 kcal/mol	1.77 ± 0.1 kcal/mol
SAGSVTTITDPAGTTTEIQPLPDGSLLTTTTTHTTNPATGGATTTTTTTLVSPVPGQPSTTTSTTTTPASAG [r5_424_JUSTAS]	1.58 ± 0.039 kcal/mol	0.195 ± 0.027 kcal/mol	1 ± 0.051 kcal/mol
SAGGKLTPEEIEELAKKLAEELRKEGKEVEIEVEIEVDGKLIKIKMKIDPKTKKIEIVKIEVYPKEDLSAGG [r13_37_TrROS_Hall]	3.9 ± 0.14 kcal/mol	2.93 ± 0.092 kcal/mol	3.58 ± 0.21 kcal/mol
SAGGSAGGSAGMKPGETYLVRIRVKVDGKWYEKEVKFKSLEELKKAGIENIEEIEIRKLPSAGGSAGGSAGG [r17_290_TrROS_Hall]	1.99 ± 0.033 kcal/mol	2.72 ± 0.075 kcal/mol	2.47 ± 0.16 kcal/mol
SAGGFKEIKKKLGVKKEDKVILDLEVNFGKKPKFFKVEFEVDKLEEIVKELGIPKENLKIVKAVVIKESAGG [r13_681_TrMRF]	-0.523 ± 0.31 kcal/mol	1.16 ± 0.082 kcal/mol	0.706 ± 0.13 kcal/mol
SAMIVVTLTINPITGKPILIFDPGVGVYAIDPETGEPHEATVDGDTLTLNFGNRPILLTPEAVIPPEELSAG [r14_208_TrMRF]	0.94 ± 0.017 kcal/mol	1.41 ± 0.079 kcal/mol	1.21 ± 0.067 kcal/mol
SAVEIEFWFPGGMSVEEFVNEFSKILPGLRDVDIGVEPYPETDMWKVTATIRIVPPPSPEDQEEMQKNKSAG [r14_645_TrROS]	1.38 ± 0.07 kcal/mol	1.7 ± 0.051 kcal/mol	1.62 ± 0.1 kcal/mol
SAGGSAGGSAGSIVLTKTEILPGPENRPIIKTTIYKPPGPITITYPGGDPSKLVIETNSGSAGGSAGGSAGG [r17_64_JUSTAS]	0.247 ± 0.032 kcal/mol	-0.331 ± 0.37 kcal/mol	0.0213 ± 0.28 kcal/mol
